The results in this text go back to paper PMC11321632 (2024).

This test deals with Lysosomal Ras-associated protein 7a (RAB7A), recombinant mouse protein (mouse, UniProt P51150 1-207). The experiment in a line: SPR. (In general: Surface plasmon resonance follows binding to a sensor surface in real time, without labels.)
Lysosomal Ras-associated protein 7a (RAB7A), recombinant mouse protein, sequence (P51150 whole entry): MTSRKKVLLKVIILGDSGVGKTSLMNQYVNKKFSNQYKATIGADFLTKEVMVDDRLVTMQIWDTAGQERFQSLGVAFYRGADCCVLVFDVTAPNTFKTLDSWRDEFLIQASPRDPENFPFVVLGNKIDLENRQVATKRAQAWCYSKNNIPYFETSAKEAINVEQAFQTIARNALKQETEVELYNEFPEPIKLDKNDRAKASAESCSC

B1: Sirtuin 5 (SIRT5), recombinant mouse protein (enzyme)
chain: SSNMADFRKCFANAKHIAIISGAGVSAESGVPTFRGAGGYWRKWQAQDLATPQAFARNPSQVWEFYHYRREVMRSKEPNPGHLAIAQCEARLRDQGRRVVVITQNIDELHRKAGTKNLLEIHGTLFKTRCTSCGTVAENYRSPICPALAGKGAPEPETQDARIPVDKLPRCEEAGCGGLLRPHVVWFGENLDPAILEEVDRELALCDLCLVVGTSSVVYPAAMFAPQVASRGVPVAEFNMETTPATDRFRFHFPGPCGKTLPEALAPHETERTS
As a reminder, the Kd is the equilibrium constant for the complex coming apart. As to B1, the dissociation constant Kd stood at 31.8 nM.
